Results: patent publication US20240109955A1

Legend:
Assay in all cases: cell-based or functional assay
[1] = biological target: SARS-CoV-2 spike (S) protein, Omicron sublineage BA.4/5 (SARS-CoV-2)
[2] = biological target: SARS-CoV-2 spike (S) protein, Omicron sublineage BQ.1.1 (SARS-CoV-2)
[3] = biological target: SARS-CoV-2 spike protein, Omicron BA.4/5 (SARS-CoV-2)
[4] = biological target: SARS-CoV-2 Omicron BA.4/5 spike protein (SARS-CoV-2)
[5] = biological target: SARS-CoV-2 spike protein, Omicron sublineage BF.7 (SARS-CoV-2) (UniProt P0DTC2)
[6] = biological target: SARS-CoV-2 Omicron BQ.1.1 spike protein (SARS-CoV-2)
[7] = biological target: SARS-CoV-2 spike protein, Omicron sublineage XBB1.5 (SARS-CoV-2) (UniProt P0DTC2)
[8] = biological target: SARS-CoV-2 Omicron BA.2.75.2 spike protein (SARS-CoV-2)
[9] = biological target: SARS-CoV-2 spike protein, Omicron BQ.1.1 (SARS-CoV-2)
[10] = biological target: SARS-CoV-2 spike protein, Omicron sublineage BQ.1.1 (SARS-CoV-2) (UniProt P0DTC2)
[11] = biological target: SARS-CoV-2 spike (S) protein, Omicron sublineage BA.2.75.2 (SARS-CoV-2)
[12] = biological target: SARS-CoV-2 spike protein, Omicron sublineage BA.4/5 (SARS-CoV-2) (UniProt P0DTC2)
[13] = biological target: SARS-CoV-2 Omicron BA.4/5 spike protein ([change]) (SARS-CoV-2) (UniProt P0DTC2)
[14] = biological target: SARS-CoV-2 Omicron BA.1 spike protein (SARS-CoV-2) (UniProt P0DTC2)
[15] = biological target: SARS-CoV-2 spike protein, Omicron sublineage BA.2.12.1 (SARS-CoV-2) (UniProt P0DTC2)
[16] = biological target: SARS-CoV-2 spike protein, Omicron sublineage BA.2 (SARS-CoV-2) (UniProt P0DTC2)
[17] = biological target: SARS-CoV-2 Omicron BQ.1.1 spike protein (SARS-CoV-2) (UniProt P0DTC2)
[18] = biological target: SARS-CoV-2 Omicron XBB spike protein (SARS-CoV-2) (UniProt P0DTC2)
[19] = biological target: SARS-CoV-2 Omicron BA.2.75.2 spike protein (SARS-CoV-2) (UniProt P0DTC2)
[20] = biological target: SARS-CoV-2 spike protein, Omicron sublineage XBB (SARS-CoV-2) (UniProt P0DTC2)

Chain of MX413 (A19-61 x A23-58H/B1-182L) (bispecific antibody) (chain): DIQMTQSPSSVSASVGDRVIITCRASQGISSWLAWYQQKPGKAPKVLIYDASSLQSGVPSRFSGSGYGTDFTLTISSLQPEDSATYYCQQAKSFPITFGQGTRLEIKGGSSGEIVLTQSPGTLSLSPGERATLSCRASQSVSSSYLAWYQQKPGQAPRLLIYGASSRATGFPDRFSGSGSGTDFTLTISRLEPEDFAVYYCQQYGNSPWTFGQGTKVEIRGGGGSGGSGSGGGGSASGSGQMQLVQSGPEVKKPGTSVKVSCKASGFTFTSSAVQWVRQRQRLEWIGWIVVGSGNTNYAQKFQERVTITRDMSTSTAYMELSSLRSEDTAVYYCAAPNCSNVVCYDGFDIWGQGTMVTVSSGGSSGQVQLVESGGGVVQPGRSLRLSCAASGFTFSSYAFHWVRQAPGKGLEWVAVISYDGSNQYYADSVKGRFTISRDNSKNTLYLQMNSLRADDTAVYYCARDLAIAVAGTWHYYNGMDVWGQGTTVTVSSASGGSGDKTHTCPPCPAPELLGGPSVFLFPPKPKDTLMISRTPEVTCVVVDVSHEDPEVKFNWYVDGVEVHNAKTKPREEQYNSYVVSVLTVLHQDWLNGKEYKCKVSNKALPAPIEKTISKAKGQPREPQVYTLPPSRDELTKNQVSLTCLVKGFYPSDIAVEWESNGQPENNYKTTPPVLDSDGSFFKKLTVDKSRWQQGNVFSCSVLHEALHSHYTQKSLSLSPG
Chain of MX492 (A19-46 x A23-58H/B1-182L) (bispecific antibody) (chain): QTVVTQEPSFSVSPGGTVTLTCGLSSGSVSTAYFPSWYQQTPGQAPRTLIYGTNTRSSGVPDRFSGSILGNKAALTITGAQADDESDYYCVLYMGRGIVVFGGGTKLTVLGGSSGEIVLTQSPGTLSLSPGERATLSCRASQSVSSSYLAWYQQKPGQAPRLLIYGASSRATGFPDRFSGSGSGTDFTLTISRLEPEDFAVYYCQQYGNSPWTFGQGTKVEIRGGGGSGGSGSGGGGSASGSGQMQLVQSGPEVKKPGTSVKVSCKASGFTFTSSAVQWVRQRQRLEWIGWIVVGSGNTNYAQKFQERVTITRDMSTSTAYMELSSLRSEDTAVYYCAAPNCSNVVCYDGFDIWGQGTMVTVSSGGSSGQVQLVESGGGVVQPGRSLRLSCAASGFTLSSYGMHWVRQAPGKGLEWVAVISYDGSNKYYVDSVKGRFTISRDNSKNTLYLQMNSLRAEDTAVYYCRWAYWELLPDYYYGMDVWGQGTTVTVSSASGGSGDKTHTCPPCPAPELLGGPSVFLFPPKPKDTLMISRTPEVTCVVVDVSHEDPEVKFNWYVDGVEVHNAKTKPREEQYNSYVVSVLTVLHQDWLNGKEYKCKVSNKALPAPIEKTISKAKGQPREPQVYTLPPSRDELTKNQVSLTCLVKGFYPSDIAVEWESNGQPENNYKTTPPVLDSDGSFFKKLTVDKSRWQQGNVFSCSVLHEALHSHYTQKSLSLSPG
Chain of A19-46 (antibody) (VH): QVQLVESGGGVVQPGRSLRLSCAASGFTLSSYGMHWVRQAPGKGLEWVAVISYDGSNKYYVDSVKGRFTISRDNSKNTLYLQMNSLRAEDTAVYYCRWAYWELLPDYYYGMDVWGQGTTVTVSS
Chain of A19-46 (antibody) (VL): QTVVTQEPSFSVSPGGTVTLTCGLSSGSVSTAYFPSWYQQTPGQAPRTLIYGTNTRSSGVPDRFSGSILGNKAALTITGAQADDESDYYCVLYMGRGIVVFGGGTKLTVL
Chain of A19-46.1 (antibody) (VH): as the sequence (VH) above
Chain of A19-46.1 (antibody) (VL): as the sequence (VL) above

A19-46 (antibody)
IC50, pseudovirus neutralization [1]: > 10 µg/mL | IC80, pseudovirus neutralization [1]: > 10 µg/mL | IC50, pseudovirus neutralization [2]: 0.386 µg/mL | IC80, pseudovirus neutralization [2]: 1.11 µg/mL | IC50, pseudovirus neutralization [3]: > 10 µg/mL | IC80, pseudovirus neutralization [3]: > 10 µg/mL | IC50, pseudovirus neutralization [4]: > 10 µg/mL | IC80, pseudovirus neutralization [4]: > 10 µg/mL | IC50, pseudovirus neutralization [5]: 5.3 µM | IC80, pseudovirus neutralization [5]: > 10 µM | IC50, pseudovirus neutralization [6]: 0.386 µg/mL | IC80, pseudovirus neutralization [6]: 1.11 µg/mL | IC50, pseudovirus neutralization [7]: > 10 µM | IC80, pseudovirus neutralization [7]: > 10 µM | IC50, pseudovirus neutralization [8]: > 10 µg/mL | IC80, pseudovirus neutralization [8]: > 10 µg/mL | IC50, pseudovirus neutralization [9]: 0.386 µg/mL | IC80, pseudovirus neutralization [9]: 1.11 µg/mL | IC50, pseudovirus neutralization [10]: 0.386 µM | IC80, pseudovirus neutralization [10]: 1.11 µM | IC50, pseudovirus neutralization [11]: > 10 µg/mL | IC80, pseudovirus neutralization [11]: > 10 µg/mL | IC50, pseudovirus neutralization [12]: > 10 µM | IC80, pseudovirus neutralization [12]: > 10 µM

A19-46.1 (antibody)
IC50, pseudovirus neutralization [13]: > 10 µM | IC80, pseudovirus neutralization [13]: > 10 µM | IC50, pseudovirus neutralization [14]: 0.077 µM | IC80, pseudovirus neutralization [14]: 0.211 µM

A19-61.1 (antibody)
IC50, pseudovirus neutralization [13]: 0.019 µM | IC80, pseudovirus neutralization [13]: 0.031 µM | IC50, pseudovirus neutralization [14]: > 10 µM | IC80, pseudovirus neutralization [14]: > 10 µM

A23-58.1 (antibody)
IC50, pseudovirus neutralization [15]: 0.1 µM | IC80, pseudovirus neutralization [15]: 0.504 µM | IC50, pseudovirus neutralization [16]: 0.263 µM | IC80, pseudovirus neutralization [16]: 1.08 µM

A23-58H/B1-182L hybrid antibody
IC50, pseudovirus neutralization [13]: > 10 µM | IC80, pseudovirus neutralization [13]: > 10 µM | IC50, pseudovirus neutralization [14]: 0.053 µM | IC80, pseudovirus neutralization [14]: 0.09 µM

B1-182.1 (antibody)
IC50, pseudovirus neutralization [15]: 0.165 µM | IC80, pseudovirus neutralization [15]: 1.38 µM | IC50, pseudovirus neutralization [16]: 0.32 µM | IC80, pseudovirus neutralization [16]: 1.21 µM

MX413 (A19-61 x A23-58H/B1-182L) (bispecific antibody)
IC50, pseudovirus neutralization [13]: 0.004 µM | IC80, pseudovirus neutralization [13]: 0.008 µM | IC50, pseudovirus neutralization [14]: 1.29 µM | IC80, pseudovirus neutralization [14]: 6.54 µM

MX492 (A19-46 x A23-58H/B1-182L) (bispecific antibody)
IC50, pseudovirus neutralization [13]: > 10 µM | IC80, pseudovirus neutralization [13]: > 10 µM | IC50, pseudovirus neutralization [14]: 0.001 µM | IC80, pseudovirus neutralization [14]: 0.003 µM

S2E12 (antibody)
IC50, pseudovirus neutralization [15]: 0.0156 µM | IC80, pseudovirus neutralization [15]: 0.0466 µM | IC50, pseudovirus neutralization [16]: 0.0099 µM | IC80, pseudovirus neutralization [16]: 0.0482 µM

bebtelovimab (antibody)
IC50, pseudovirus neutralization [5]: 0.00328 µM | IC80, pseudovirus neutralization [5]: 0.0269 µM | IC50, pseudovirus neutralization [17]: > 10 µg/mL | IC80, pseudovirus neutralization [17]: > 10 µg/mL | IC50, pseudovirus neutralization [7]: > 10 µM | IC80, pseudovirus neutralization [7]: > 10 µM | IC50, pseudovirus neutralization [15]: 0.00852 µM | IC80, pseudovirus neutralization [15]: 0.0148 µM | IC50, pseudovirus neutralization [16]: 0.0143 µM | IC80, pseudovirus neutralization [16]: 0.0185 µM | IC50, pseudovirus neutralization [10]: > 10 µM | IC80, pseudovirus neutralization [10]: > 10 µM | IC50, pseudovirus neutralization [18]: > 10 µg/mL | IC80, pseudovirus neutralization [18]: > 10 µg/mL | IC50, pseudovirus neutralization [19]: 0.00567 µg/mL | IC80, pseudovirus neutralization [19]: 0.0207 µg/mL | IC80, pseudovirus neutralization [13]: 0.001 µM | IC50, pseudovirus neutralization [12]: 0.00188 µM | IC80, pseudovirus neutralization [12]: 0.00374 µM | IC50, pseudovirus neutralization [14]: 0.001 µM | IC80, pseudovirus neutralization [14]: 0.007 µM | IC50, pseudovirus neutralization [20]: > 10 µM | IC80, pseudovirus neutralization [20]: > 10 µM
